Experimental findings from patent US20100183542A1, “Synergism Between Activated Immune Cells and Conventional Cancer Therapies” (UNIVERSITY OF SOUTH ALABAMA, priority 2006, published 2010) are described below.

Data set [1] concerns Hela cells. The data set can be described thus: Hela cells pre-sensitized with cytokines for 2 days, fresh medium 3 days, WST-1 on day 5 (Experiments 9, 10). It counts as cell-based. Particulars: for effect on the maximum cytotoxic effect of IFN-γ: Experiment 9: in combination with IFN-γ. The protocol: Hela cells were pre-sensitized with IFN-γ, and IFN-γ in combination with other cytokines for 2 days. The pre-sensitized Hela cells were then cultured with fresh complete RPMI 1640 for another 3 days. Cell viability was measured by WST-1 assay on day 5.
The pre-sensitized Hela cells were cultured with fresh complete RPMI 1640 for another 3 days. Cell viability was measured by WST-1 assay on day 5.
A general note: Tetrazolium assays rely on reduction of a dye to a coloured formazan, in cell work by metabolically active cells.

Data set [2] relates to Hela cells. The data set can be described thus: Hela cells pre-sensitized with cytokines, 4 Gy gamma radiation, WST-1 on day 5 (Experiments 7, 8, 11, 12, 13). It counts as cell-based. The protocol: Hela cells were pre-sensitized for 2 days with each cytokine listed on FIG. 29. The pre-sensitized Hela cells were thereafter trypsinzed, washed, and irradiated with 4 Gy of gamma radiation. The irradiated cells were plated in 96-well plate at 5000 cells per well in 200 μl of complete medium. Cell viability was measured by WST-1 reagent on day 5.
Hela cells were pre-sensitized for 2 days by individual cytokines, combinations or all cytokines. The pre-sensitized Hela cells were thereafter harvested, washed, and irradiated with 4 Gy of gamma radiation. The irradiated cells were plated in 96-well plate at 5000 cells per well in 200 μl of RPMI 1640 medium. Cell viability was measured by WST-1 assay on day 5.
Hela cells were pre-sensitized with various combinations of cytokines identified in FIG. 33. The pre-sensitized Hela cells were made single suspension and irradiated by 4 Gy of gamma radiation. The irradiated cells were plated in 96-well plate at 5000 cells per well in 200 μl RPMI 1640 medium. Cell viability was measured by WST-1 assay on day 5.
Hela cells were pre-sensitized for 2 days with CD4+ T cells, a combination of [IFN-γ/TNF-α/IL-2/Il-6], or a combination of all cytokines. The pre-sensitized cells were thereafter placed into a single suspension and irradiated by 4 Gy of gamma radiation. The irradiated cells were plated in 96-well plate at 5000 cells per well in 200 μl RPMI 1640 medium. Cell viability was measured by WST-1 assay on day 5.
Another experiment was performed similar to experiment 16, except that [IFN-γ/TNF-α] was used instead of the combination of [IFN-γ/TNF-α/Il-2/Il-6].

Consider GM-CSF: cytokine, for which, in the data set with Hela cells [1], the “effect on the maximum cytotoxic effect of IFN-γ” value is given as “added effect”.

For the molecule IFN-γ: cytokine, the “contribution to enhanced effect of gamma irradiation” value in the data set with Hela cells [2] (Experiment 7: each cytokine 2 days, 4 Gy) is “major factor contributing to the enhanced effect of gamma irradiation”. The “synergistic effect with gamma radiation” value with Hela cells [2] (Experiment 11: 4 Gy) was “Synergistic effect”.

On to TNF-α, for which the “effect on the maximum cytotoxic effect of IFN-γ” value with Hela cells [1] is “added effect”.

B1: IFN-γ: cytokine (protein, UniProt P01579 24-161, looked up)
Interferon gamma: QDPYVKEAENLKKYFNAGHSDVADNGTLFLGILKNWKEESDRKIMQSQIVSFYFKLFKNFKDDQSIQKSVETIKEDMNVKFFNSNKKKRDDFEKLTNYSVTDLNVQRKAIHELIQVMAELSPAAKTGKRKRSQMLFRG
B1: the “contribution to cytotoxicity of gamma irradiation” value in the data set on Hela cells [2] (Experiment 8: individual cytokines, combinations or all cytokines 2 days, 4 Gy) is on record as “contributes to enhance cytotoxicity of gamma irradiation”. Moreover, the contribution to cytotoxicity entry in the data set on Hela cells [1] (Experiment 9: 2 days pre-sensitization, 3 days fresh medium) is given as “contributes to enhance cytotoxicity of gamma irradiation”.
